Measured values published in PMC5057122, “Arabidopsis aldehyde dehydrogenase 10 family members confer salt tolerance through putrescine-derived 4-aminobutyrate (GABA) production” (Scientific Reports, 2016).

Legend:
AtALDH10A9 = biological target: T1, AtALDH10A9 (Arabidopsis thaliana, UniProt Q9STS1); assay: NADH formation at […] nm, substrate-inhibition Michaelis-Menten fit; format: biochemical; conditions: 500 μM NAD+, pH 9.5, room temperature, apparent
T1 construct: gene ALDH10A9
T1 sequence (Q9STS1 1-503): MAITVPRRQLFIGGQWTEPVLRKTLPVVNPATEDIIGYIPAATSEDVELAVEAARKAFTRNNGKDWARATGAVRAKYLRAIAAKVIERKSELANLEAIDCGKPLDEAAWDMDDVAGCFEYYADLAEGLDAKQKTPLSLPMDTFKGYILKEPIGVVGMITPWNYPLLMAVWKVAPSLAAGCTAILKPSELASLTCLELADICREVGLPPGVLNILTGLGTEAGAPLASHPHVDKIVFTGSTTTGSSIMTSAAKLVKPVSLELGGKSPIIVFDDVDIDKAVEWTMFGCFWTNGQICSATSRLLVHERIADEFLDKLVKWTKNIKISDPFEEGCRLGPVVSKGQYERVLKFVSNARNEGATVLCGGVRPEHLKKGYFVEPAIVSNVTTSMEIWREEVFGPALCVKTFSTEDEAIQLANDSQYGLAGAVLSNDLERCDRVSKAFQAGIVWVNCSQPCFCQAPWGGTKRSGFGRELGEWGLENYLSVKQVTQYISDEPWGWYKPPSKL

AtALDH10A8 = biological target: T2, AtALDH10A8 (Arabidopsis thaliana, UniProt Q9S795); assay: as above; format: biochemical; conditions: substrate inhibition (partial); 100 μM NAD+, pH 8.5, room temperature; apparent
T2 construct: gene ALDH10A8
T2 sequence (Q9S795 1-501): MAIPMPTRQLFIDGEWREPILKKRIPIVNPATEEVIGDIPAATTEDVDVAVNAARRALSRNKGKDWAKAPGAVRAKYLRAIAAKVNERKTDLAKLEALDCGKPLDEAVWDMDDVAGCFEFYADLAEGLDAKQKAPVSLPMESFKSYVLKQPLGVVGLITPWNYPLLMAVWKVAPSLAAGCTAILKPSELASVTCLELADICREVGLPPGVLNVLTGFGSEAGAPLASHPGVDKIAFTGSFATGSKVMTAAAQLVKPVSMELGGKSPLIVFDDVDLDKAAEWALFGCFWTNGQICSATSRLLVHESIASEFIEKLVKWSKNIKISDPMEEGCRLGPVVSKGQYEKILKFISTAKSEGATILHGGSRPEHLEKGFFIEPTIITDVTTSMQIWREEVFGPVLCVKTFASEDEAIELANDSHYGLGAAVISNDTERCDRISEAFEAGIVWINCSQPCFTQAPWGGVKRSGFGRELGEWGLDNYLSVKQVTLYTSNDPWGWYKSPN

purified protein [1] = substrate: NCCC=O; assay: purified protein; format: biochemical, Arabidopsis thaliana; conditions: apparent
purified protein [2] = substrate: NC(=O)c1ccc[n+]([C@@H]2O[C@H](COP(=O)(O)OP(=O)(O)OC[C@H]3O[C@@H](n4cnc5c(N)ncnc54)[C@H](O)[C@@H]3O)[C@@H](O)[C@H]2O)c1; assay: purified protein; format: biochemical, Arabidopsis thaliana; conditions: apparent, varied: cofactor
purified protein [3] = substrate: NCCCC=O; assay: purified protein; format: biochemical, Arabidopsis thaliana; conditions: apparent
[4] = 100 μM NAD+, pH 8.5, room temperature
[5] = co-substrate 7 μM APAL (subsaturating), pH 8.5, room temperature
[6] = 500 μM NAD+, pH 9.5, room temperature
[7] = co-substrate 30 μM APAL (subsaturating), pH 9.5, room temperature

NCCCC=O [ABAL]
AtALDH10A9 / Kis (AtALDH10A9): 2600 ± 750 µM | AtALDH10A8 / Kis (AtALDH10A8): 55.7 ± 26.0 µM

NCCC=O [APAL]
AtALDH10A9 / Kis (AtALDH10A9): 19000 ± 5800 µM | AtALDH10A8 / Kis (AtALDH10A8): 5.5 ± 0.3 µM

B1: AtALDH10A8 (Arabidopsis thaliana) (protein)
chain: MAIPMPTRQLFIDGEWREPILKKRIPIVNPATEEVIGDIPAATTEDVDVAVNAARRALSRNKGKDWAKAPGAVRAKYLRAIAAKVNERKTDLAKLEALDCGKPLDEAVWDMDDVAGCFEFYADLAEGLDAKQKAPVSLPMESFKSYVLKQPLGVVGLITPWNYPLLMAVWKVAPSLAAGCTAILKPSELASVTCLELADICREVGLPPGVLNVLTGFGSEAGAPLASHPGVDKIAFTGSFATGSKVMTAAAQLVKPVSMELGGKSPLIVFDDVDLDKAAEWALFGCFWTNGQICSATSRLLVHESIASEFIEKLVKWSKNIKISDPMEEGCRLGPVVSKGQYEKILKFISTAKSEGATILHGGSRPEHLEKGFFIEPTIITDVTTSMQIWREEVFGPVLCVKTFASEDEAIELANDSHYGLGAAVISNDTERCDRISEAFEAGIVWINCSQPCFTQAPWGGVKRSGFGRELGEWGLDNYLSVKQVTLYTSNDPWGWYKSPN
Km (purified protein [1]; [4]): 14.4 ± 2.7 µM | kcat/Km (purified protein [1]; [4]): 1.03e+06 M⁻¹ s⁻¹ | Km (purified protein [2]; [5]): 13.2 ± 1.5 µM | kcat/Km (purified protein [2]; [5]): 260000 M⁻¹ s⁻¹ | Km (purified protein [3]; [4]): 25.1 ± 2.5 µM | kcat/Km (purified protein [3]; [4]): 60000 M⁻¹ s⁻¹

B2: AtALDH10A9 (Arabidopsis thaliana) (protein)
chain: MAITVPRRQLFIGGQWTEPVLRKTLPVVNPATEDIIGYIPAATSEDVELAVEAARKAFTRNNGKDWARATGAVRAKYLRAIAAKVIERKSELANLEAIDCGKPLDEAAWDMDDVAGCFEYYADLAEGLDAKQKTPLSLPMDTFKGYILKEPIGVVGMITPWNYPLLMAVWKVAPSLAAGCTAILKPSELASLTCLELADICREVGLPPGVLNILTGLGTEAGAPLASHPHVDKIVFTGSTTTGSSIMTSAAKLVKPVSLELGGKSPIIVFDDVDIDKAVEWTMFGCFWTNGQICSATSRLLVHERIADEFLDKLVKWTKNIKISDPFEEGCRLGPVVSKGQYERVLKFVSNARNEGATVLCGGVRPEHLKKGYFVEPAIVSNVTTSMEIWREEVFGPALCVKTFSTEDEAIQLANDSQYGLAGAVLSNDLERCDRVSKAFQAGIVWVNCSQPCFCQAPWGGTKRSGFGRELGEWGLENYLSVKQVTQYISDEPWGWYKPPSKL
Km (purified protein [1]; [6]): 17.3 ± 4.1 µM | kcat/Km (purified protein [1]; [6]): 820000 M⁻¹ s⁻¹ | Km (purified protein [2]; [7]): 86 ± 16 µM | kcat/Km (purified protein [2]; [7]): 150000 M⁻¹ s⁻¹ | Km (purified protein [3]; [6]): 460 ± 65 µM | kcat/Km (purified protein [3]; [6]): 20000 M⁻¹ s⁻¹
